Numbering of substitutions follows the chain as printed.
B1: MUT p.F573S (enzyme, human)
chain: LHQQQPLHPEWAALAKKQLKGKNPEDLIWHTPEGISIKPLYSKRDTMDLPEELPGVKPFTRGPYPTMYTFRPWTIRQYAGFSTVEESNKFYKDNIKAGQQGLSVAFDLATHRGYDSDNPRVRGDVGMAGVAIDTVEDTKILFDGIPLEKMSVSMTMNGAVIPVLANFIVTGEEQGVPKEKLTGTIQNDILKEFMVRNTYIFPPEPSMKIIADIFEYTAKHMPKFNSISISGYHMQEAGADAILELAYTLADGLEYSRTGLQAGLTIDEFAPRLSFFWGIGMNFYMEIAKMRAGRRLWAHLIEKMFQPKNSKSLLLRAHCQTSGWSLTEQDPYNNIVRTAIEAMAAVFGGTQSLHTNSFDEALGLPTVKSARIARNTQIIIQEESGIPKVADPWGGSYMMECLTNDVYDAALKLINEIEEMGGMAKAVAEGIPKLRIEECAARRQARIDSGSEVIVGVNKYQLEKEDAVEVLAIDNTSVRNRQIEKLKKIKSSRDQALAERCLAALTECAASGDGNILALAVDASRARCTVGEITDALKKVSGEHKANDRMVSGAYRQEFGESKEITSAIKRVHKFMEREGRRPRLLVAKMGQDGHDRGAKVIATGFADLGFDVDIGPLFQTPREVAQQAVDADVHAVGISTLAAGHKTLVPELIKELNSLGRPDILVMCGGVIPPQDYEFLFEVGVSNVFGPGTRIPKAAVQVLDDIEKCLEKKQQSV
notes: methylmalonyl-CoA mutase (MUT), human; construct 'hMUT' of Froese et al., 2010b with a patient missense mutation; Same construct limits as m1 (see its note); source: E. coli, purified (Ni-NTA, Superdex 200, TEV cleavage, reverse Ni-NTA)
B2: MUT p.R369H (enzyme, human)
chain: B1 chain with R337H, S541F
notes: as for B1
B3: MUT p.P86L (enzyme, human)
chain: B1 chain with P54L, S541F
notes: as for B1
B4: MUT p.T387I (enzyme, human)
chain: B1 chain with T355I, S541F
notes: as for B1
B5: MUT p.M700K (enzyme, human)
chain: B1 chain with S541F, M668K
notes: as for B1
B6: MUT p.G426R (enzyme, human)
chain: B1 chain with G394R, S541F
notes: as for B1
B7: MUT p.Y100C (enzyme, human)
chain: B1 chain with Y68C, S541F
notes: as for B1
B8: MUT p.Q218H (enzyme, human)
chain: B1 chain with Q186H, S541F
notes: as for B1
B9: MUT p.R694L (enzyme, human)
chain: B1 chain with S541F, R662L
notes: as for B1
B10: MUT p.R694W (enzyme, human)
chain: B1 chain with S541F, R662W
notes: as for B1
B11: MUT p.G648D (enzyme, human)
chain: B1 chain with S541F, G616D
notes: as for B1
B12: MUT p.V633G (enzyme, human)
chain: B1 chain with S541F, V601G
notes: as for B1
B13: MUT p.G717V (enzyme, human)
chain: B1 chain with S541F, G685V
notes: as for B1
B14: MUT p.Y231N (enzyme, human)
chain: B1 chain with Y199N, S541F
notes: as for B1
B15: MUT p.N366S (enzyme, human)
chain: B1 chain with N334S, S541F
notes: as for B1

Biological target: the molecule itself
Experiment: SEC; Superdex 200 in the large-scale purification from E. coli; retention volumes of the mutants compared with wt MUT; data not shown

Protein | stoichiometry N
B1 | 2
B2 | 2
B3 | 2
B4 | 2
B5 | 2
B6 | 2
B7 | 2
B8 | 2
B9 | 2
B10 | 2
B11 | 2
B12 | 2
B13 | 2
B14 | 2
B15 | 2

Reference: paper PMC4441004, “Functional Characterization and Categorization of Missense Mutations that Cause Methylmalonyl‐CoA Mutase (MUT) Deficiency” (Human Mutation, 2014)
